Test results: paper PMC6694677
pKd: −log10 of the molar value.

Columns and labels:
[1] = molecular target: CD3 on Jurkat cells (human (endogenous in Jurkat)) (UniProt P07766); assay: FACS; settings: bispecific antibody
[2] = molecular target: HER2 on SK-BR-3 cells (human (endogenous in SK-BR-3)) (UniProt P04626); assay: FACS; settings: bispecific antibody
[3] = molecular target: recombinant HER2 antigen (ectodomain of hHER2) (Homo sapiens) (UniProt P04626); assay: SPR; ProteOn XPR36, GLC chip; HER2 antigen immobilised by amine coupling at 1000 RU; antibodies (M802 0 to 50 nM) injected; 1:1 L interaction model; KD = Kd/Ka
[4] = molecular target: recombinant CD3 antigen (ectodomain of hCD3) (human) (UniProt P07766); assay: SPR; ProteOn XPR36, GLC chip; CD3 antigen immobilised by amine coupling at 1000 RU; antibodies (M802 0 to 50 nM) injected; Two state interaction model; KD = Kd/Ka
recombinant CD3 antigen (ectodomain of hCD3) (human), sequence (P07766 23-126): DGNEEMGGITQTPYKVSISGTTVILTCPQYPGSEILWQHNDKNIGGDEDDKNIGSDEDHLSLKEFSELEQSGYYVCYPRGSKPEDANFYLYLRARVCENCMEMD

[5] = molecular target: HER2 on SK-BR-3 cells (human (endogenous in SK-BR-3)) (UniProt P04626); assay: flow cytometry on cells; SK-BR-3 or Jurkat cells with serially diluted antibody, 1 h at room temperature; PE-conjugated anti-human IgG Fc as secondary antibody
[6] = molecular target: recombinant HER2 antigen (ectodomain of hHER2) (Homo sapiens) (UniProt P04626); assay: SPR; ProteOn XPR36; HER2 and CD3 antigens amine-coupled on a GLC chip at 1000 RU; M802 (0 to 50 nM) and other antibodies injected; 1:1 L interaction model for HER2, two state interaction model for CD3
[7] = molecular target: recombinant CD3 antigen (ectodomain of hCD3) (human) (UniProt P07766); assay: as above

CD3 on Jurkat cells (human (endogenous in Jurkat)), sequence (P07766 23-207, chain 1 of 3): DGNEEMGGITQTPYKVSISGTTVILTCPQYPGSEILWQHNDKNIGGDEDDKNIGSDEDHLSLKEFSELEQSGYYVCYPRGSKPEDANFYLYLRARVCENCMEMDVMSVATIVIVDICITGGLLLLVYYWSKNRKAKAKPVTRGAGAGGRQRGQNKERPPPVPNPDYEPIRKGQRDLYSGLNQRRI
CD3 on Jurkat cells (human (endogenous in Jurkat)), sequence (P04234 22-171, chain 2 of 3, further chain): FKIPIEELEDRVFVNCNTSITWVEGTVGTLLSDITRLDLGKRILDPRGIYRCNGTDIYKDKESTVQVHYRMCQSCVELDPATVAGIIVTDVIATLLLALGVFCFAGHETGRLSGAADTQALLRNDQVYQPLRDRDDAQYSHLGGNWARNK
CD3 on Jurkat cells (human (endogenous in Jurkat)), sequence (P09693 23-182, chain 3 of 3, further chain): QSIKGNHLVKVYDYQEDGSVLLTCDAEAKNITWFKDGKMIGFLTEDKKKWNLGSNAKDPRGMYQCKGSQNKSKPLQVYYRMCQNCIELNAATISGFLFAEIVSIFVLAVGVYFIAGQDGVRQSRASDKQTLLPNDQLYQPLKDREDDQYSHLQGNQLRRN

Work on “M802, anti-HER2/CD3 bispecific antibody (MSBODY format: monovalent unit against HER2 and single chain unit against CD3) (from UniProt P01857)” yielded a pKd [1] of 6.73 and a pKd [2] of 7.93.
With “M802, anti-HER2/CD3 bispecific antibody (monovalent unit against HER2 and single chain unit against CD3)” the koff [3] was 0.000248 s⁻¹, the kon [3] was 429000 M⁻¹ s⁻¹ and the koff [4] was 0.0245 s⁻¹. For the same substance, the kon [4] was 345000 M⁻¹ s⁻¹.
“M802, anti-HER2/CD3 bispecific antibody (MSBODY format: monovalent unit against HER2 and single chain unit against CD3)” gave a fold weaker affinity than Herceptin [5] of 3 fold, a pKd [6] of 9.24 and a pKd [7] of 7.15.
